In paper doi:10.1101/709196 (bioRxiv, 2019):

Key:
[1] = target: SS-EGFP-SUN2^261-731 (UniProt Q8BJS4); assay: dual-color fluorescence fluctuation spectroscopy
[2] = target: the molecule itself; assay: dual-color fluorescence fluctuation spectroscopy

Row | normalized brightness br (mCherry labels per complex) at Nr:Ng above 4:1 [1] | stoichiometry N ([1]; scale: mCherry-SR-KASH2 per SS-EGFP-SUN2^261-731) | Molecule | stoichiometry N [2]
1 | 3 | < 1 | mCherry-SR-KASH2 (from UniProt Q6ZWQ0 1-6874) (domain or fragment) | 
2 |  |  | SS-EGFP-SUN2^261-731 (domain or fragment, UniProt Q8BJS4 261-731, looked up) SWWAAKESRKQPEVWESRDASQHFQAEQRVLSRVHSLERRLEALAADFSSNWQKEAIRLERLELRQGAAGHGGGSSLSHEDALSLLEGLVSRREATLKEDLRRDTVAHIQEELATLRAEHHQDSEDLFKKIVQASQESEARVQQLKTEWKSMTQEAFQESSVKELGRLEAQLASLRQELAALTLKQNSVADEVGLLPQKIQAARADVESQFPDWIRQFLLGDRGARSGLLQRDEMHAQLQELENKILTKMAEMQGKSAREAAASLGQILQKEGIVGVTEEQVHRIVKQALQRYSEDRIGMVDYALESGGASVISTRCSETYETKTALLSLFGIPLWYHSQSPRVILQPDVHPGNCWAFQGPQGFAVVRLSARIRPTAVTLEHVPKALSPNSTISSAPKDFAIFGFDEDLQQEGTLLGTFAYDQDGEPIQTFYFQASKMATYQVVELRILTNWGHPEYTCIYRFRVHGEPAH | 3
